From article PMC9527319, “^99mTc-labeled iRGD for single-positron emission computed tomography imaging of triple-negative breast cancer” (Frontiers in Bioengineering and Biotechnology, 2022)
Read-outs that look alike come from different tables or passages of the source. Bridge positions count the residues as written; N and C are the ends. Peptide text beside a SMILES is read from it. * marks the point of attachment. HYNIC = NNc1ccc(C(=O)*)cn1

Experiments:
[1] = In vitro stability of 99mTc-labeled peptides in PBS and cysteine solution (RCP by TLC); assay type: physicochemical; details: PBS (0.1 M, pH = 7.4) and cysteine solution (100-fold molar excess over the peptides), room temperature, within 6 h, RCP by TLC (silica gel 60 F254, 50% acetonitrile)
Protocol: (§1) HYNIC-iRGD, HYNIC-iRGE, and HYNIC-CG7C were labeled with ^99mTc according to previously published procedures in the literature ([Bohn et al., 2013]; [Xu et al., 2017]; [Gong et al., 2022]). In brief, a mixture of 50 μl HYNIC-modified peptide (1 mg/ml in water), 0.5 ml EDDA solution (20 mg/ml in 0.1 M NaOH), 0.5 ml tricine solution (40 mg/ml in 0.2 M PBS, pH = 6.0), 1 ml Na^99mTcO4 solution (50 mCi/ml), and 50 μl SnCl2 solution (1 mg/ml in 0.1 M HCl) were heated at 100°C for 15 min. After cooling to room temperature, the mixture was analyzed using instant thin-layer chromatography (TLC) and radio-high-performance liquid chromatography (radio-HPLC). The ^99mTc-labeled peptides were characterized using an Agilent 1260 HPLC system (Agilent Technologies, United States) equipped with a UV-vis detector (λ = 220 nm) and a radioactive flow detector (BioScan, United States). A SunFire C18 column (5 μm, 4.6 × 250 mm, Waters, Japan) was used at a flow rate of 1 ml/min with the following gradient method: 0.1% Trifluoroacetic acid in H2O and CH3CN (0–20 min, 10%–35% CH3CN) for iRGD and iRGE, and 0.1% trifluoroacetic acid in H2O and CH3CN (0–20 min, 25%–60% CH3CN) for CG7C. Their RCPs were determined by radio-HPLC and rapidly analyzed by TLC in a system consisting of silica gel 60 F254 TLC plates (Merck, Germany) and 50% acetonitrile as mobile phase. […]

[2] = Pharmacokinetics (blood radioactivity-time curve); assay type: in vivo; details: healthy ICR mice; for clear-phase half-life t1/2(β) / distribution phase half-life t1/2(α): i.v., blood, two-compartment model (DAS 2.0); for tissue uptake at 1 min / tissue uptake at 0.5 h / tissue uptake at 3 h: mouse, whole blood, iv, 20 uCi, total radioactivity, i.v. 20 μCi in 200 μl PBS, γ-counter, read-out: radioactivity level in blood; for tissue uptake at 1 min / tissue uptake at 0.5 h: mean ± SD; for tissue uptake at 0.5 h: 30 min; for tissue uptake at 3 h: 180 min
Protocol: The pharmacokinetic profiles of ^99mTc-HYNIC-iRGD and ^99mTc-HYNIC-iRGE were evaluated in healthy ICR mice. Each mouse was intravenously injected with ^99mTc-HYNIC-iRGD or ^99mTc-HYNIC-iRGE at a dose of 20 μCi in 200 μl PBS solution. Blood samples ([…]) from each mouse were immediately collected and weighed at designated times (1, 2, 5, 15, 30, 60, 120, and 180 min), and the radioactivity was measured using a γ-counter to calculate the %ID/g. Moreover, the pharmacokinetic data were analyzed by DAS 2.0 (Shanghai, China) using a two-compartment model to calculate the half-lives of ^99mTc-HYNIC-iRGD and ^99mTc-HYNIC-iRGE in blood.

[3] = test system: 4T1 tumor-bearing mice; details: for course of SPECT signal in tumor with time: i.v. tail vein, 0.5, 1, 2 and 4 h post-injection; for tumor accumulation (SPECT): i.v. tail vein, 0.5 h post-injection
Text: Murine breast cancer cells 4T1 were purchased from Procell Life Science and Technology Co., Ltd. (Wuhan, China) and maintained in RPMI-1640 supplemented with 10% FBS. Four-week-old female BALB/c nude mice (18–20 g) and healthy ICR mice (20–22 g) were purchased from Shanghai Laboratory Animal Center of the Chinese Academy of Sciences (Shanghai, China). To establish breast cancer models, four-week-old female BALB/c nude mice were subcutaneously injected in their right-side flanks with 5 × 10^6 4T1 cells suspended in 100 μl of PBS. When the tumor diameter reached 0.8–1.2 cm, the mice were used for animal experiments. All animal experiments were repeated three times and performed according to the protocols established by the Ethics Committee of Shanghai General Hospital.
The 4T1 tumor-bearing mice were randomly divided into three groups (three mice per group). After anesthetization with pentobarbital sodium (40 mg/kg), 200 μl of ^99mTc-HYNIC-iRGD, ^99mTc-HYNIC-iRGE, or ^99mTc-HYNIC-CG7C ([^99mTc] = 10 mCi/ml) was injected via the tail vein. SPECT images were acquired at 0.5, 1, 2, and 4 h post-injection using a SPECT imaging system equipped with a Xeleris 2.0 workstation and low-energy general-purpose collimators (Infinia, Denver, CO, United States).

[4] = In vitro stability of 99mTc-labeled peptides in FBS (RCP by TLC); assay type: in vitro ADME, bovine; details: FBS at 37°C, within 6 h, RCP by TLC (silica gel 60 F254, 50% acetonitrile)
Protocol: as §1

[5] = test system: 4T1 tumor-bearing mice; assay: Biodistribution (gamma-counter, %ID/g); assay type: in vivo
Protocol: The radioactivity counts of all samples were measured using a γ-counter (CAPINTEC, United States) and expressed as counts per minute after correction for decay. The results are shown as the percentage of injection dose/gram (%ID/g) of wet tissue for each time point in each group.

[6] = i.v. 20 μCi, 4 h post-injection

| Compound | changes in RCPs (stability in vitro) [1] | clear-phase half-life t1/2(β) [2] [min] | distribution phase half-life t1/2(α) [2] [min] | tissue uptake at 1 min [2] [%ID/g] | tissue uptake at 0.5 h [2] [%ID/g] | tissue uptake at 3 h [2] [%ID/g] | course of SPECT signal in tumor with time ([3]; 4T1 tumor-bearing nude mice) | tumor accumulation (SPECT) ([3]; 4T1 tumor-bearing nude mice) | radioactivity in bladder and kidneys (SPECT; clearance through the urinary system) ([3]; mouse, in vivo, iv) | changes in RCPs (stability in vitro) [4] | tumor-to-muscle (T/M) ratio ([5]; i.v. 20 μCi, 0.5, 1, 2 and 4 h post-injection) | tumor-to-kidney (T/K) ratio ([5]; i.v. 20 μCi, 0.5–4 h post-injection) | tumor-to-blood (T/B) ratio [5, 6] | tumor-to-lung (T/Lu) ratio [5, 6] | radioactivity in bladder and kidneys (SPECT; clearance through the urinary system) ([3]; 4T1 tumor-bearing nude mice, i.v., each time point 0.5–4 h) |
| --- | --- | --- | --- | --- | --- | --- | --- | --- | --- | --- | --- | --- | --- | --- | --- |
| N=C(N)NCCC[C@@H]1NC(=O)[C@@H](NC(=O)c2ccc(NN)nc2)CSSC[C@@H](C(=O)O)NC(=O)[C@H](CC(=O)O)NC(=O)[C@@H]2CCCN2C(=O)CNC(=O)[C@H](CCCCN)NC(=O)[C@H](CCC(=O)O)NC(=O)CNC1=O [^99mTc-HYNIC-iRGE, metal not drawn] ({HYNIC}-CRGEKGPDC-OH; disulfide 1-9 (inferred); N-terminus and C-terminus assumed) | no obvious changes in RCPs | 10.56 | 0.88 | 19.3 ± 2.52 | 1.06 ± 0.08 | ~0.1 | gradually faded with time | distinct tumor accumulation | high radioactivity | no obvious changes in RCPs | – | – | – | – | – |
| N=C(N)NCCC[C@@H]1NC(=O)[C@@H](NC(=O)c2ccc(NN)nc2)CSSC[C@@H](C(=O)O)NC(=O)[C@H](CC(=O)O)NC(=O)[C@@H]2CCCN2C(=O)CNC(=O)[C@H](CCCCN)NC(=O)[C@H](CC(=O)O)NC(=O)CNC1=O [^99mTc-HYNIC-iRGD, metal not drawn] | no obvious changes in RCPs | 12.54 | 1.43 | 14.3 ± 0.95 | 1.26 ± 0.11 | ~0.1 | increase in tumor accumulation of radioactivity | distinct tumor accumulation | – | no obvious changes in RCPs | higher in mice treated with ^99mTc-HYNIC-iRGD than in those treated with ^99mTc-HYNIC-iRGE at each time point | much higher than for ^99mTc-HYNIC-iRGE and ^99mTc-HYNIC-CG7C | 1.8 | 1.9 | high radioactivity |
